Measured values from US20030022260A1.

Target: LexA-DP-1 (pLEX(HIS).DP-1): complete bacterial LexA protein fused to DP-1 from residue 59 to 410 (bacterial; murine) (UniProt Q08639)

- transcriptional activity of the E2F site reporter p4x WT CYC1 in yeast: > 6 fold
Substance: GAD-E2F-5 (pGAD.E2F-5): entire murine E2F-5 as a hybrid with the activation domain of the yeast GAL4 protein (768-881) (from UniProt P04386)
